Assay [1] deals with HLA-B*15:01. Nature of the assay: IEDB peptide-MHC binding, purified MHC/competitive/fluorescence; filed as Kd, often an IC50 or EC50 that approximates it; ≥ and ≤ were set here for values at or beyond the usual limits of such assays. The note with it: source organism: Bacillus anthracis str. A0488.
The target of assay [2] is HLA-B*40:01. Description: IEDB peptide-MHC binding, purified MHC/competitive/radioactivity; filed as Kd, often an IC50 or EC50 that approximates it; ≥ and ≤ were set here for values at or beyond the usual limits of such assays.
The next assay concerns the target HLA-B*44:03. Described as above. The note with it: source organism: Dengue virus 1 Brazil/97-11/1997.
For assay [3], the target named is HLA-B*40:01. Nature of the assay: IEDB peptide-MHC binding, purified MHC/direct/fluorescence; filed as Kd, often an IC50 or EC50 that approximates it; ≥ and ≤ were set here for values at or beyond the usual limits of such assays.
The target in the next assay is HLA-B*44:02. The description is as above. The conditions noted are these: source organism: Influenza A virus (A/egret/Hong Kong/757.3/2002(H5N1)).
For assay [4], the target named is HLA-B*15:01. Described as above.
Another assay concerns the target HLA-A*03:01. The assay is described as above.
A further assay has as its target HLA-A*02:01. The description is as above.
The target in assay [5] is HLA-A*26:01. The assay is described as above.
For a further assay, the target named is HLA-B*07:02. The assay is described as above.
The target in the next assay is HLA-A*69:01. The description is as above.
The target in a further assay is HLA-A*11:01. The description is as above.
For a further assay, the target named is HLA-B*27:05. The assay is described as above.
In another assay the target is HLA-B*08:01. The description is as above.
The next assay addresses HLA-B*58:01. The assay is described as above.
In the next assay the target is HLA-A*31:01. The description is as above.
In a further assay the target is HLA-B*15:17. Description: IEDB peptide-MHC binding, purified MHC/competitive/fluorescence; filed as Kd, often an IC50 or EC50 that approximates it; ≥ and ≤ were set here for values at or beyond the usual limits of such assays.
The target in assay [6] is HLA-A*01:01. Description: IEDB peptide-MHC binding, purified MHC/direct/fluorescence; filed as Kd, often an IC50 or EC50 that approximates it; ≥ and ≤ were set here for values at or beyond the usual limits of such assays. The conditions noted are these: source organism: Comamonas sediminis.
The target of the next assay is HLA-A*30:02. Nature of the assay: IEDB peptide-MHC binding, purified MHC/competitive/radioactivity; filed as Kd, often an IC50 or EC50 that approximates it; ≥ and ≤ were set here for values at or beyond the usual limits of such assays.
Assay [7] concerns the target HLA-A*26:01. The description is as above.
For another assay, the target named is HLA-A*24:02. The description is as above.
The target of another assay is HLA-A*23:01. The assay is described as above.
For another assay, the target named is HLA-A*29:02. Described as above.
Assay [8] concerns the target HLA-A*01:01. Described as above.
Where [9] appears, read: source organism: Dengue virus 2 Jamaica/1409/1983.
The mark [10] stands for this setting: source organism: Dengue virus 1 Brazil/97-11/1997.
[11] abbreviates: source organism: Corynebacterium efficiens.
Where [12] appears, read: source organism: Corynebacterium glutamicum.
Setting [13] is: source organism: Comamonas sediminis.
The mark [14] stands for this setting: source organism: SARS coronavirus Tor2.
The mark [15] stands for this setting: source organism: Lassa virus Josiah.

Bounds are passed on as bounds.

By Kd is commonly meant the equilibrium constant for the complex coming apart.

In the assay with HLA-B*15:01 [1], AEVRPVVSY registered a dissociation constant (Kd) of 0.0735 µM.

Turning to GEEVQVLAL, the Kd in the assay with HLA-B*40:01 [2] (setting [9]) came out at 0.00309 µM.

For the sequence GEVDSFSLGI, the Kd in the assay with HLA-B*40:01 [2] (setting [10]) was determined as 0.0567 µM; with HLA-B*44:03, 0.0194 µM.

For HEGYEEFTM, the values for the equilibrium dissociation constant (Kd) in the assay with HLA-B*40:01 [3] (source organism: Influenza A virus (A/egret/Hong Kong/757.3/2002(H5N1))) and with HLA-B*44:02 were 0.0119 µM and at least 20 µM, respectively.

For the sequence HEWCCRSCTL, in the assay with HLA-B*40:01 [2] (setting [10]), the equilibrium dissociation constant (Kd) worked out at 0.00399 µM.

Take IEEGRTLRVL: the dissociation constant Kd with HLA-B*40:01 [2] (setting [10]) was determined as 0.0718 µM.

Take IENTTANISL: the Kd in the assay with HLA-B*40:01 [2] (setting [10]) worked out at 0.00315 µM.

As to ITWETPMIW, the equilibrium dissociation constant (Kd) in the assay with HLA-B*40:01 [3] (setting [11]), with HLA-B*15:01 [4] (setting [11]), with HLA-A*03:01 (setting [11]), with HLA-A*02:01 (setting [11]), with HLA-A*26:01 [5] (setting [11]) and with HLA-B*07:02 (setting [11]) was at least 20 µM in each case. The Kd with HLA-A*69:01 (setting [12]) is 0.507 µM; with HLA-A*11:01 (setting [11]) it was at least 20 µM; with HLA-B*27:05 (setting [11]), at least 20 µM; in the assay with HLA-B*08:01 (setting [11]) it was at least 20 µM; in the assay with HLA-B*58:01 (setting [12]) it was 0.00443 µM; in the assay with HLA-A*31:01 (setting [11]) it was at least 20 µM. This sequence also yielded a Kd with HLA-B*15:17 (setting [12]) of at most 0.001 µM.

In the case of KEEESEGAI, the equilibrium dissociation constant (Kd) in the assay with HLA-B*40:01 [2] (source organism: Dengue virus 3 Martinique/1243/1999) is 0.0464 µM.

Take KEFAAGRKSL: the dissociation constant Kd in the assay with HLA-B*40:01 [2] (setting [9]) is 0.00963 µM.

As for KSLGIDQIW, the equilibrium dissociation constant (Kd) with HLA-B*40:01 [3] (setting [13]) was at least 20 µM; with HLA-B*15:01 [4] (setting [13]), 1.77 µM; in the assay with HLA-A*03:01 (setting [13]), at least 20 µM; with HLA-A*02:01 (setting [13]), at least 20 µM; in the assay with HLA-A*26:01 [5] (setting [13]), at least 20 µM; in the assay with HLA-B*07:02 (setting [13]) it was at least 20 µM. Further, the Kd in the assay with HLA-A*69:01 (setting [13]) is at least 20 µM; in the assay with HLA-A*11:01 (setting [13]) it was at least 20 µM; with HLA-B*27:05 (setting [13]) it was at least 20 µM; with HLA-A*01:01 [6], at least 20 µM; with HLA-B*08:01 (setting [13]), at least 20 µM; with HLA-B*58:01 (setting [13]), 0.00829 µM. The Kd came out at 4.66 µM with HLA-A*31:01 (setting [13]) and 0.00135 µM with HLA-B*15:17 (setting [13]).

For LFTKFFYLL, the Kd was at least 83.3 µM with HLA-A*30:02 (setting [14]); at least 38.1 µM with HLA-A*26:01 [7] (setting [14]); 0.11 µM in the assay with HLA-A*24:02 (setting [14]); 0.154 µM in the assay with HLA-A*23:01 (setting [14]); 6.96 µM with HLA-A*29:02 (setting [14]); at least 78.1 µM with HLA-A*01:01 [8] (setting [14]).

As to LTGHMLDMY, the Kd is 0.0728 µM in the assay with HLA-A*30:02 (setting [14]); 10.5 µM with HLA-A*26:01 [7] (setting [14]); at least 77.6 µM with HLA-A*24:02 (setting [14]); at least 77.8 µM with HLA-A*23:01 (setting [14]); 0.0611 µM with HLA-A*29:02 (setting [14]); 0.000563 µM in the assay with HLA-A*01:01 [8] (setting [14]).

With NAAISDYDYY, the Kd is 0.274 µM with HLA-A*30:02 (setting [14]); 1.64 µM with HLA-A*26:01 [7] (setting [14]); at least 70.3 µM with HLA-A*24:02 (setting [14]); at least 70 µM in the assay with HLA-A*23:01 (setting [14]); 0.688 µM in the assay with HLA-A*29:02 (setting [14]); 0.0124 µM with HLA-A*01:01 [8] (setting [14]).

Consider PEDPVEIALY, for which the Kd with HLA-A*30:02 (setting [15]) was 0.961 µM; with HLA-A*26:01 [7] (setting [15]), at least 69.7 µM; with HLA-A*24:02 (setting [15]), at least 70.3 µM; with HLA-A*23:01 (setting [15]) it was at least 70 µM; in the assay with HLA-A*29:02 (setting [15]) it was 15 µM; with HLA-A*01:01 [8] (setting [15]) it was at least 34.4 µM.

The record behind these values is the Immune Epitope Database (IEDB).
